Measurements: patent publication US20250115680A1 (PROFOUNDBIO US, published 2025)

Experiments:
[1] = target: T1, human PTK7 on the surface of PTK7-expressing tumor cell lines (human, UniProt Q13308 31-1070); test: flow cytometry on MDA-MB-231 cells, PE anti-human Fc detection, MFI(PE)
T1 construct: whole, on cells
T1 sequence (looked up): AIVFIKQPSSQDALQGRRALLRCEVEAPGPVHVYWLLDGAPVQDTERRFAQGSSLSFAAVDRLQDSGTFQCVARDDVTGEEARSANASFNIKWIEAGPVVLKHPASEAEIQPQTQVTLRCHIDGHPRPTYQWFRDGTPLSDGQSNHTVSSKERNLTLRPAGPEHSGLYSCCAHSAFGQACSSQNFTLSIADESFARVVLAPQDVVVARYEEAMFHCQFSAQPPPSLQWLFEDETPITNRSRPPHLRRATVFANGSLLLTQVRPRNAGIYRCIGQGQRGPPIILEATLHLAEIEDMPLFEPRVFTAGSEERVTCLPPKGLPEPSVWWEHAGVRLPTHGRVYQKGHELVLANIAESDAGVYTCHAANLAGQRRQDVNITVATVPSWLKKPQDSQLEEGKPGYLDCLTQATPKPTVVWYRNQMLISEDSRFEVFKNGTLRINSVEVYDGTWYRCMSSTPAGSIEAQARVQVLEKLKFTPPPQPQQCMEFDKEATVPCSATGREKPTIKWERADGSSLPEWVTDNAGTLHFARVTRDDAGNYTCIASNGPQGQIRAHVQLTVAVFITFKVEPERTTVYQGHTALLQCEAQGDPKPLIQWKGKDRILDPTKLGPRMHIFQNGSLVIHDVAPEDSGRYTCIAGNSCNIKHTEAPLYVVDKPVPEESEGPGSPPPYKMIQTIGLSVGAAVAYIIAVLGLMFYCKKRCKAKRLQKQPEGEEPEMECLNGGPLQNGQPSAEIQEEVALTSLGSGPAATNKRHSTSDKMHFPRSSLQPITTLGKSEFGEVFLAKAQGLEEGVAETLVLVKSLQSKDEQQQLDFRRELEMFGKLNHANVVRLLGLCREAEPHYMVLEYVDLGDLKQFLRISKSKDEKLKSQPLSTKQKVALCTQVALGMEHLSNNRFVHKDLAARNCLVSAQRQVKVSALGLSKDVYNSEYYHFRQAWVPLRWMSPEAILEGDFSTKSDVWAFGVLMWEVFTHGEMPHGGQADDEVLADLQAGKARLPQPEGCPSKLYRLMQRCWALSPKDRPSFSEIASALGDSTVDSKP

[2] = target: T2, human PTK-7 recombinant protein (human, UniProt Q13308 31-704, limits assumed); test: ELISA, plate-coated human PTK7 protein, anti-human Fc-HRP detection
T2 construct: also called human PTK7 protein
T2 sequence (looked up): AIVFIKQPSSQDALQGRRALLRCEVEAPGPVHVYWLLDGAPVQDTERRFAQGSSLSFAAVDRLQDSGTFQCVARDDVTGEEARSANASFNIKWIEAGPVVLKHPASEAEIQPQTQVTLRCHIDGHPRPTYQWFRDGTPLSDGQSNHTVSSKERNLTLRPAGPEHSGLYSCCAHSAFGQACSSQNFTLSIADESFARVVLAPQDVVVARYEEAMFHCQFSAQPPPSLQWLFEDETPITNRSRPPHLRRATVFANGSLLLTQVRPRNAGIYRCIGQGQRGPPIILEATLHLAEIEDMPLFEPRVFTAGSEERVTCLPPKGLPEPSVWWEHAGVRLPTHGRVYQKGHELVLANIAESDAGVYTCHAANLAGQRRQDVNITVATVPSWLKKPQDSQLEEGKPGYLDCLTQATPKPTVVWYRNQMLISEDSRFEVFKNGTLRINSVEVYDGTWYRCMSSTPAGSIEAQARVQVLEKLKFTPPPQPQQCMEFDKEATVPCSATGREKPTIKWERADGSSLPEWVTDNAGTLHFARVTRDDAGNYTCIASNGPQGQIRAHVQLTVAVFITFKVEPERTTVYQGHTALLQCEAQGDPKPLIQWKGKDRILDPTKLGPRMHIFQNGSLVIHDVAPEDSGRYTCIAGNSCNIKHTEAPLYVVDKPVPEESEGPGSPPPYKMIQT
Procedure: (§1) Binding specificity property was tested by ELISA according to a standard protocol. Specifically, 96-well micro-plates were coated with 2 μg/mL human, cynomolgus, mouse, and rat PTK-7 recombinant protein in PBS 100 μL per well, incubated overnight at 4° C. Plates were washed twice by TBS+0.5% Tween20. 200 μL of blocking buffer (2% BSA in PBS) was added to each well and incubated at 37° C. for 2 hours. Plates were washed using the buffer mentioned above. Serially diluted antibodies were added to the ELISA plate with 100 μL per well and incubated for 1 hour at room temperature. Then plates were washed for 3 times. After washing, HRP conjugated anti-human Fc antibody solution (abcam, ab98624, diluted with blocking buffer) was added to the plate with 100 μl per well. The plates were incubated at room temperature for 1 hour and then washed for 3 times. Then TMB solution was added to plates with 100 μl per well, placed at room temperature for 5-15 mins, then the stop solution (2M H₂SO₄) was added with 50 μl per well. Finally, the result was measured by absorbance at A₄₅₀ and A₆₃₀.

[3] = target: T1, human PTK7 on the surface of …; test: flow cytometry on PA-1 cells, PE anti-human Fc detection, MFI(PE)
[4] = target: T2, human PTK-7 recombinant protein; test: ELISA, plate coated with 2 ug/mL human PTK-7 recombinant protein, HRP anti-human Fc detection, OD450
Procedure: as §1

[5] = target: T3, rat PTK-7 recombinant protein (rat, UniProt A0A8I6ALM9 40-713); test: ELISA, plate-coated rat PTK7 recombinant protein
T3 construct: also called rat PTK7 protein
Procedure: as §1

B1: humanized antibody 2C5 (antibody, V domains shown)
VH: QVQLVQSGAEVKKPGASVKVSCKASGYTFTDYYINWVRQAPGQGLEWMGDINPYSGGPVYNQKFMARVTMTVDKSINTAYMELSRLRSDDTAVYYCARGDYYGSNYNYWGQGTLVTVSS
VL: EIVLTQSPATLSVSPGERATLSCRASQNIGTSIHWYQQKPGQAPRLLIKFASESISGIPARFSGSGSGTEFTLTISSLQSEDIAVYYCQQSNNWPYTFGQGTKLEIK
notes: Only variable regions are tied to 2C5; It was detected with anti-human Fc, so it has a human Fc
- EC50 [1]: 0.506 nM
- EC50 [2]: 0.027 nM
- EC50 [3]: 0.711 nM
- EC50 [4]: 0.0267 nM

B2: humanized antibody 2C8 (antibody, V domains shown)
VH: QIQLVQSGAEVKKPGASVKVSCKASGYTFTTYGMSWVRQAPGQGLEWMGWINTHSGVPTYVDEFKGRVTMTLDTSTSTAYMELSSLRSEDTAVYYCARSPFDYGSRGAWFVYWGQGTTVTVSS
VL: DVVMTQSPDSLAVSLGERATINCRSSQSIVHNSGDTYLEWYQQKPGQPPKLLIYKVSNRFPGVPDRFSGSGSGTDFTLTISSLQAEDLAVYYCFQGSHVPWTFGGGTKVEIK
notes: Only variable regions are tied to 2C8 by name; It was detected with anti-human Fc
- EC50 [1]: 0.423 nM
- EC50 [2]: 0.032 nM
- EC50 [3]: 0.562 nM
- binding result [5]: no binding
- EC50 [4]: 0.0317 nM

B3: humanized antibody 13C4 (antibody, V domains shown)
VH: QVQLVESGGGLVKPGGSLRLSCAASGFAFSTYDMFWIRQAPGKGLEWVSTISSGGGYTYYPGSVKGRFTISRDNAKNSLYLQMNSLRAEDTAVYYCVRPLLRDSYFYFDVWGQGTMVTVSS
VL: EIVMTQSPATLSVSPGERATLSCRASSSVSSSYLHWYQQKPGQAPRLLIFRTSNLASGIPARFSGSGSGTEYTLTISSLQSEDAAVYYCQQYSGYPLTFGQGTKLEIK
notes: Only variable regions are tied to 13C4; It was detected with anti-human Fc
- EC50 [1]: 0.828 nM
- EC50 [2]: 0.022 nM
- EC50 [3]: 0.808 nM
- binding result [5]: no binding
- EC50 [4]: 0.0221 nM
